Here are results for seven molecules from US20200024316A1 (GENOIMMUNE THERAPEUTICS, published 2020).

The target in this test is T1, HLA-A0201 on T2 cells (human).
T1 construct: MHC class I molecule on T2 cells; also called HLA-A0201 molecule; HLA-A2
As to the kind of experiment: T2 cell HLA-A0201 assay, flow cytometry with FITC anti-HLA-A0201 mAb, peptide 100 µM. For orientation: Flow cytometry measures light scatter and fluorescence of single cells or particles in a stream.

Protocol: Cells were collected by centrifugation of the cell culture at 200 g for 5 minutes. […] The mean fluorescence intensity (MFI) was then detected and analyzed by flow cytometer (BD FACSJazz™) and its software. The fluorescence index (FI) was calculated by using the following formula:

B1: wild-type peptide TLISSLRPI (peptide)
peptide: TLISSLRPI
notes: Made by solid phase synthesis, purified by reverse phase HPLC, purity >90%
Turning to B1, the Average fluorescence intensity was determined as 672 and the “FI (fluorescence index)” value turned out to be 1.99.

B2: mutant peptide TLISSLMPI (peptide)
peptide: TLISSLMPI
notes: Made by solid phase synthesis, purity >90%; also called peptide (a); tumor antigen peptide
As to B2, the Average fluorescence intensity amounted to 683 and the “FI (fluorescence index)” value stood at 2.04.

In the case of TLISSLMPV [variant peptide TLISSLMPV], the Average fluorescence intensity worked out at 714 and the “FI (fluorescence index)” value was determined as 2.18.

As for TMISSLMPL [variant peptide TMISSLMPL], the Average fluorescence intensity was found to be 764 and the “FI (fluorescence index)” value was found to be 2.4.

TMISSLMPV [variant peptide TMISSLMPV]: the Average fluorescence intensity is 776 and the “FI (fluorescence index)” value was found to be 2.46.

As to TMISSLMPI [variant peptide TMISSLMPI], the Average fluorescence intensity is 701 and the “FI (fluorescence index)” value was found to be 2.12.

In the case of TLISSLMPL [variant peptide TLISSLMPL], the Average fluorescence intensity came out at 692 and the “FI (fluorescence index)” value was 2.08.
